{
  "source": "paper PMC8298264",
  "about": "“Function of cofactor Akirin2 in the regulation of gene expression in model human neutrophil-like HL60 cells” (Bioscience Reports, 2021)",
  "data": [
    {"system": "human HL60 cells", "experiment": "SWATH-MS proteomics, differential protein representation, akirin2 KO vs WT HL60 cells", "type": "cell-based", "details": "KO vs WT HL60 cells; sheet \"Under-represented in KO\"", "summary_of_the_method": "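First, proteins from wild-type and knockout cells are digested with trypsin by FASP. Next, pooled IDA runs generate a reference ion library. Then six samples of 5 µg each are acquired by data-independent SWATH, and protein areas are normalized to the summed area of all detected proteins.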", "values": [
      {"molecule": "sp¦O96011¦PX11B_HUMAN (protein, UniProt O96011 1-259, looked up) Peroxisomal membrane protein …: MDAWVRFSAQSQARERLCRAAQYACSLLGHALQRHGASPELQKQIRQLESHLSLGRKLLRLGNSADALESAKRAVHLSDVVLRFCITVSHLNRALYFACDNVLWAGKSGLAPRVDQEKWAQRSFRYYLFSLIMNLSRDAYEIRLLMEQESSACSRRLKGSGGGVPGGSETGGLGGPGTPGGGLPQLALKLRLQVLLLARVLRGHPPLLLDVVRNACDLFIPLDKLGLWRCGPGIVGLCGLVSSILSILTLIYPWLRLKP", "Fold Change": 0.5344, "Log (Fold Change)": -0.2721},
      {"molecule": "sp¦Q9BTT0¦AN32E_HUMAN (protein, UniProt Q9BTT0 1-268, looked up) Acidic leucine-rich nuclear …: MEMKKKINLELRNRSPEEVTELVLDNCLCVNGEIEGLNDTFKELEFLSMANVELSSLARLPSLNKLRKLELSDNIISGGLEVLAEKCPNLTYLNLSGNKIKDLSTVEALQNLKNLKSLDLFNCEITNLEDYRESIFELLQQITYLDGFDQEDNEAPDSEEEDDEDGDEDDEEEEENEAGPPEGYEEEEEEEEEEDEDEDEDEDEAGSELGEGEEEVGLSYLMKEEIQDEEDDDDYVEEGEEEEEEEEGGLRGEKRKRDAEDDGEEEDD", "Fold Change": 0.5286, "Log (Fold Change)": -0.2769},
      {"molecule": "sp¦Q9UGP8¦SEC63_HUMAN (protein, UniProt Q9UGP8 1-760, looked up) Translocation protein SEC63 …: MAGQQFQYDDSGNTFFYFLTSFVGLIVIPATYYLWPRDQNAEQIRLKNIRKVYGRCMWYRLRLLKPQPNIIPTVKKIVLLAGWALFLFLAYKVSKTDREYQEYNPYEVLNLDPGATVAEIKKQYRLLSLKYHPDKGGDEVMFMRIAKAYAALTDEESRKNWEEFGNPDGPQATSFGIALPAWIVDQKNSILVLLVYGLAFMVILPVVVGSWWYRSIRYSGDQILIRTTQIYTYFVYKTRNMDMKRLIMVLAGASEFDPQYNKDATSRPTDNILIPQLIREIGSINLKKNEPPLTCPYSLKARVLLLSHLARMKIPETLEEDQQFMLKKCPALLQEMVNVICQLIVMARNREEREFRAPTLASLENCMKLSQMAVQGLQQFKSPLLQLPHIEEDNLRRVSNHKKYKIKTIQDLVSLKESDRHTLLHFLEDEKYEEVMAVLGSFPYVTMDIKSQVLDDEDSNNITVGSLVTVLVKLTRQTMAEVFEKEQSICAAEEQPAEDGQGETNKNRTKGGWQQKSKGPKKTAKSKKKKPLKKKPTPVLLPQSKQQKQKQANGVVGNEAAVKEDEEEVSDKGSDSEEEETNRDSQSEKDDGSDRDSDREQDEKQNKDDEAEWQELQQSIQRKERALLETKSKITHPVYSLYFPEEKQEWWWLYIADRKEQTLISMPYHVCTLKDTEEVELKFPAPGKPGNYQYTVFLRSDSYMGLDQIKPLKLEVHEAKPVPENHPQWDTAIEGDEDQEDSEGFEDSFEEEEEEEEDDD", "Fold Change": 0.5228, "Log (Fold Change)": -0.2816},
      {"molecule": "sp¦Q8WU39¦MZB1_HUMAN (protein, UniProt Q8WU39 23-189, looked up) Marginal zone B- and …: DRAPLTATAPQLDDEEMYSAHMPAHLRCDACRAVAYQMWQNLAKAETKLHTSNSGGRRELSELVYTDVLDRSCSRNWQDYGVREVDQVKRLTGPGLSEGPEPSISVMVTGGPWPTRLSRTCLHYLGEFGEDQIYEAHQQGRGALEALLCGGPQGACSEKVSATREEL", "Fold Change": 0.5261, "Log (Fold Change)": -0.279},
      {"molecule": "sp¦Q9NVA1¦UQCC1_HUMAN (protein, UniProt Q9NVA1 1-299, looked up) Ubiquinol-cytochrome c …: MALLVRVLRNQTSISQWVPVCSRLIPVSPTQGQGDRALSRTSQWPQMSQSRACGGSEQIPGIDIQLNRKYHTTRKLSTTKDSPQPVEEKVGAFTKIIEAMGFTGPLKYSKWKIKIAALRMYTSCVEKTDFEEFFLRCQMPDTFNSWFLITLLHVWMCLVRMKQEGRSGKYMCRIIVHFMWEDVQQRGRVMGVNPYILKKNMILMTNHFYAAILGYDEGILSDDHGLAAALWRTFFNRKCEDPRHLELLVEYVRKQIQYLDSMNGEDLLLTGEVSWRPLVEKNPQSILKPHSPTYNDEGL", "Fold Change": 0.5349, "Log (Fold Change)": -0.2718}
    ]}
  ]
}
